The target in this experiment is T1, His-PCID2 (PCI domain-containing protein 2) (mouse, UniProt Q8BFV2 1-399).
T1 construct: PCID2 (PCI domain-containing protein 2), mouse full-length Pcid2 subcloned into pETDuet; the plasmid section names only the mouse construct; also called His-tagged PCID2; recombinant PCID2 protein; source: E. coli, purified (Ni-NTA His-resins)
The experiment in a line: pull-down; GST-ZNHIT1 incubated with His-PCID2 protein, GST pulldown. Particulars: both partners purified.

T1 sequence (Q8BFV2 whole entry, the tested form may be a part): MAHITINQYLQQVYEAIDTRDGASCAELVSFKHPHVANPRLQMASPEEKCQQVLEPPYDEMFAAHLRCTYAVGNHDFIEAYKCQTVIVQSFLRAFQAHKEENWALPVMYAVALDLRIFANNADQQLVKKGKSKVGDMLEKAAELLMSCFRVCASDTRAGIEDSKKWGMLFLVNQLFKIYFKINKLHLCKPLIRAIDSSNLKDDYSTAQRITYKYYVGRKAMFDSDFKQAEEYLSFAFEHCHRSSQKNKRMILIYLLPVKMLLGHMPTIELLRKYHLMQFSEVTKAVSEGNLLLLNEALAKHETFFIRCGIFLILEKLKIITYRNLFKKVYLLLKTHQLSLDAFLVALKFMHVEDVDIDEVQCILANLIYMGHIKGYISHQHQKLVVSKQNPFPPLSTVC

B1: GST-ZNHIT1 (Zinc finger HIT-type containing 1) (natural protein, mouse, UniProt Q8R331 1-154, looked up)
chain: MVEKKPAVRSQDPGQRRVLDRAARQRRINRQLEALENDNFQDDPHAGLPQLGKRLPQFDDDADTGKKKKKTRGDHFKLRFRKNFQALLEEQNLSASEGPNYLTACAGPPSRPQRPFCAVCGFPSPYTCVSCGARYCTVRCLGTHQETRCLKWTV
notes: ZNHIT1 (Zinc finger HIT-type containing 1, p18^hamlet), mouse Znhit1 cloned into pGEX-6P-1; Vector pGEX-6P-1; also called GST-tagged ZNHIT1; p18^hamlet; source: E. coli, purified (Glutathione Sepharose 4B)
On to B1, for which the binding result is on record as “binds”.

(Values after paper PMC5686073, “Suppression of SRCAP chromatin remodelling complex and restriction of lymphoid lineage commitment by Pcid2” (Nature Communications, 2017).)
